The supplement of paper PMC9112550, “Optimization of the antimicrobial peptide Bac7 by deep mutational scanning” (BMC Biology, 2022)

What follows are sequences tested on Escherichia coli TOP10 (assay: shrunken log2 fold change of peptide-encoding DNA abundance (4.5 h post-induction vs induction); higher = less antimicrobial activity (less host growth inhibition)). Conditions: time post-induction: 4.5 h; library: site-saturation at positions 5, 18, 19, 20.
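Note: peptides expressed intracellularly from a pBAD plasmid library in pooled LB shake-flask culture, induced with 0.3% L-arabinose, DNA abundance read by NGS, three biological replicates, DESeq2 with apeglm shrinkage.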

Sequence	shrunken log2 fold change
RRIRHRPPRLPRPRPRPQRVPRP	-0.139
RRIRHRPPRLPRPRPRPQSMPRP	-0.156
RRIRHRPPRLPRPRPRPQVNPRP	-0.273
RRIRHRPPRLPRPRPRPQVRPRP	-0.134
RRIRHRPPRLPRPRPRPQVVPRP	-0.101
RRIRHRPPRLPRPRPRPRAPPRP	0.741
RRIRHRPPRLPRPRPRPRAVPRP	0.518
RRIRHRPPRLPRPRPRPRCAPRP	0.189
RRIRHRPPRLPRPRPRPRCEPRP	0.149
RRIRHRPPRLPRPRPRPRCPPRP	0.169
RRIRHRPPRLPRPRPRPRCRPRP	0.615
RRIRHRPPRLPRPRPRPRDIPRP	0.115
RRIRHRPPRLPRPRPRPRDRPRP	0.0898
RRIRHRPPRLPRPRPRPREDPRP	-0.0018
RRIRHRPPRLPRPRPRPRHEPRP	0.099
RRIRHRPPRLPRPRPRPRHHPRP	-0.0639
RRIRHRPPRLPRPRPRPRIAPRP	0.0721
RRIRHRPPRLPRPRPRPRKAPRP	-0.0445
RRIRHRPPRLPRPRPRPRLEPRP	0.0466
RRIRHRPPRLPRPRPRPRMKPRP	-0.223
RRIRHRPPRLPRPRPRPRNFPRP	0.134
RRIRHRPPRLPRPRPRPRNRPRP	0.672

Sequence	shrunken log2 fold change
RRIRHRPPRLPRPRPRPRPPPRP	1.15
RRIRHRPPRLPRPRPRPRRVPRP	0.36
RRIRHRPPRLPRPRPRPRRWPRP	-0.00291
RRIRHRPPRLPRPRPRPRSFPRP	-0.0488
RRIRHRPPRLPRPRPRPRTKPRP	0.204
RRIRHRPPRLPRPRPRPRTLPRP	-0.137
RRIRHRPPRLPRPRPRPRTYPRP	-0.749
RRIRHRPPRLPRPRPRPSCGPRP	-0.304
RRIRHRPPRLPRPRPRPSEEPRP	-0.00149
RRIRHRPPRLPRPRPRPSELPRP	0.0169
RRIRHRPPRLPRPRPRPSFTPRP	-0.632
RRIRHRPPRLPRPRPRPSGRPRP	0.0298
RRIRHRPPRLPRPRPRPSHRPRP	-0.548
RRIRHRPPRLPRPRPRPSHTPRP	-0.248
RRIRHRPPRLPRPRPRPSICPRP	0.0424
RRIRHRPPRLPRPRPRPSIDPRP	-0.617
RRIRHRPPRLPRPRPRPSIEPRP	-0.37
RRIRHRPPRLPRPRPRPSIGPRP	-0.335
RRIRHRPPRLPRPRPRPSIQPRP	-0.344
RRIRHRPPRLPRPRPRPSITPRP	-0.569
RRIRHRPPRLPRPRPRPSKHPRP	-0.177
RRIRHRPPRLPRPRPRPSLDPRP	-0.22

Sequence	shrunken log2 fold change
RRIRHRPPRLPRPRPRPSLEPRP	0.0392
RRIRHRPPRLPRPRPRPSMDPRP	-0.828
RRIRHRPPRLPRPRPRPSMMPRP	-0.407
RRIRHRPPRLPRPRPRPSNHPRP	-0.461
RRIRHRPPRLPRPRPRPSNVPRP	-0.00144
RRIRHRPPRLPRPRPRPSPHPRP	-0.39
RRIRHRPPRLPRPRPRPSQFPRP	-0.247
RRIRHRPPRLPRPRPRPSQKPRP	-0.0338
RRIRHRPPRLPRPRPRPSQTPRP	0.067
RRIRHRPPRLPRPRPRPSRRPRP	-0.105
RRIRHRPPRLPRPRPRPSSLPRP	-0.153
RRIRHRPPRLPRPRPRPSSMPRP	-0.474
RRIRHRPPRLPRPRPRPSTYPRP	-0.202
RRIRHRPPRLPRPRPRPSVAPRP	-0.156
RRIRHRPPRLPRPRPRPSWIPRP	-0.171
RRIRHRPPRLPRPRPRPTAIPRP	-0.183
RRIRHRPPRLPRPRPRPTATPRP	0.39
RRIRHRPPRLPRPRPRPTCGPRP	0.0685
RRIRHRPPRLPRPRPRPTDHPRP	-0.487
RRIRHRPPRLPRPRPRPTDLPRP	-0.154
RRIRHRPPRLPRPRPRPTFKPRP	-0.537
RRIRHRPPRLPRPRPRPTGPPRP	0.149

Sequence	shrunken log2 fold change
RRIRHRPPRLPRPRPRPTHSPRP	-0.192
RRIRHRPPRLPRPRPRPTIFPRP	-0.0675
RRIRHRPPRLPRPRPRPTIGPRP	-0.0227
RRIRHRPPRLPRPRPRPTKFPRP	-0.138
RRIRHRPPRLPRPRPRPTKNPRP	-0.312
RRIRHRPPRLPRPRPRPTLLPRP	-0.281
RRIRHRPPRLPRPRPRPTPCPRP	0.00473
RRIRHRPPRLPRPRPRPTPEPRP	-0.0453
RRIRHRPPRLPRPRPRPTPIPRP	0.226
RRIRHRPPRLPRPRPRPTPLPRP	0.243
RRIRHRPPRLPRPRPRPTQVPRP	0.172
RRIRHRPPRLPRPRPRPTQWPRP	0.0126
RRIRHRPPRLPRPRPRPTSMPRP	-0.0792
RRIRHRPPRLPRPRPRPTTAPRP	0.0968
RRIRHRPPRLPRPRPRPTTEPRP	-0.0115
RRIRHRPPRLPRPRPRPTTHPRP	0.0467
RRIRHRPPRLPRPRPRPTTPPRP	0.0328
RRIRHRPPRLPRPRPRPTTQPRP	-0.0335
RRIRHRPPRLPRPRPRPTTWPRP	-0.182
RRIRHRPPRLPRPRPRPTVGPRP	0.0689
RRIRHRPPRLPRPRPRPTVHPRP	-0.755
RRIRHRPPRLPRPRPRPTWMPRP	3.02

Sequence	shrunken log2 fold change
RRIRHRPPRLPRPRPRPTYEPRP	0.15
RRIRHRPPRLPRPRPRPVAMPRP	-0.123
RRIRHRPPRLPRPRPRPVCEPRP	0.0977
RRIRHRPPRLPRPRPRPVCFPRP	-0.0341
RRIRHRPPRLPRPRPRPVCRPRP	-0.3
RRIRHRPPRLPRPRPRPVCWPRP	0.268
RRIRHRPPRLPRPRPRPVDPPRP	-0.0989
RRIRHRPPRLPRPRPRPVDYPRP	-0.253
RRIRHRPPRLPRPRPRPVFIPRP	-0.493
RRIRHRPPRLPRPRPRPVFRPRP	0.0291
RRIRHRPPRLPRPRPRPVGMPRP	-0.63
RRIRHRPPRLPRPRPRPVKLPRP	-0.438
RRIRHRPPRLPRPRPRPVKWPRP	0.421
RRIRHRPPRLPRPRPRPVMDPRP	0.153
RRIRHRPPRLPRPRPRPVMEPRP	0.105
RRIRHRPPRLPRPRPRPVSQPRP	0.114
RRIRHRPPRLPRPRPRPVSTPRP	-0.263
RRIRHRPPRLPRPRPRPVTPPRP	-0.00938
RRIRHRPPRLPRPRPRPVVEPRP	-0.0145
RRIRHRPPRLPRPRPRPVWSPRP	-0.103
RRIRHRPPRLPRPRPRPWAKPRP	-0.235
